Some results are limits rather than exact numbers.

A short description of data set [1]: Conversion of glyoxal into glyoxylic acid by purified enzymes, HPLC. Format: biochemical. The conditions noted are these: 0.2 U/ml enzyme, 50 mM glyoxal, 5,000 U/ml catalase, 100 mM Tris-HCl, 30° C., 3 hours. The method, then: Each of the enzymes derived from Streptomyces sp. KNK269, Microbacterium sp. KNK011, Pseudomonas sp. KNK058, and Cellulosimicrobium cellulans IFO 15516, which were obtained in Examples 4, 5, 6, and 7, respectively, was reacted using glyoxal as a substrate. That is, 1 ml of 100 mM Tris-HCl buffer comprising 0.2 U/ml enzyme derived from each of the above strains, 50 mM glyoxal, and 5,000 U/ml catalase, were placed in a test tube. It was then subjected to a shake reaction at 30° C. for 3 hours. After completion of the reaction, the reaction solution was analyzed by high performance liquid chromatography.

Data set [2] can be described thus: Oxidase activity to glyoxal (H2O2 detection with 4-AA/TOOS/POD, absorbance 555 nm). Format: biochemical. The conditions noted are these: for Activity to glyoxal/activity to glyoxylic acid: 10 mM substrate, 30° C., 100 mM phosphate buffer pH 7; for Relative activity (%): substrate glyoxal (reference = 100), enzymes of the invention. The procedure:
When the reaction is catalyzed by oxidase, not only glyoxylic acid but also hydrogen peroxide is produced. Oxidase activity of interest can easily be detected by detecting such hydrogen peroxide.
Specifically, 0.1 ml of cell suspension or enzyme solution is added to 0.9 ml of a 100 mM phosphate buffer (pH 7) having the composition indicated below, and an increase in the absorbance at a wavelength of 555 nm is measured at 30° C. In the present invention, enzyme activity for generating 1 μmol H2O2 per minute is defined as 1 unit.
(§1) The cell-free extract of each of KNK235 and KNK058 obtained by the method described in Example 1 was charged to a Resource Q column (6 ml) that had previously been equilibrated with a 0.05 M phosphate buffer (pH 7), and the enzyme was eluted with a linear concentration gradient of sodium chloride from 0 to 0.5 M, so as to collect active fractions. Roughly purified enzyme solutions of these KNK235 and KNK058 and purified enzymes obtained from Streptomyces sp. KNK269, Microbacterium sp. KNK011, and Cellulosimicrobium cellulans IFO 15516, obtained in Examples 4, 5, and 7, respectively, were measured in terms of their oxidase activity to glyoxal and to glyoxylic acid. Measurement of the enzyme activity was carried out by the following method. That is, 1.0 ml of a reaction solution comprising 10 mM glyoxal or glyoxylic acid, 0.67 mM 4-AA, 1.09 mM TOOS, 2 U/ml POD, and a roughly purified enzyme from KNK235 or KNK058, or a purified enzyme obtained from NKN269, KNK011, or IFO 15516 in Example 4, 5, or 7, was reacted at 30° C. in a 100 mM phosphate buffer (pH 7). Thereafter, an increase in the absorbance at a wavelength of 555 nm was measured.

The nature of data set [3]: Oxidase activity to glyoxylic acid (H2O2 detection with 4-AA/TOOS/POD, absorbance 555 nm). The class given is biochemical. The note with it: substrate glyoxylic acid, relative to glyoxal = 100; enzymes of the invention. The procedure:
as §1

The nature of data set [4]: Heat stability of purified enzyme (remaining activity). Format: physicochemical. The note with it: 0.05 M phosphate buffer pH 7.2, 20 minutes, treatment at 70° C. (FIG. 3). The method, then: as §1, with “measured. […]” for “measured.”
The present enzyme was treated in a 0.05 M phosphate buffer (pH 7.2) at each temperature from 30° C. to 70° C. for 20 minutes. Thereafter, the remaining activity of the present enzyme was measured using glyoxal as a substrate.

“KNK011-derived enzyme: aldehyde oxidase purified from Microbacterium sp. KNK011; SEQ ID NOS: 7 and 8” had a glyoxylic acid generated in data set [1] of 25 mM. Further, in data set [2], the “Activity to glyoxal/activity to glyoxylic acid” value (“Activity to glyoxal/activity” for short) was found to be 183 and the “Relative activity (%)” value is given as 100%. Also, the “Relative activity (%)” value in data set [3] was found to be 0.5%.

“IFO15516-derived enzyme: aldehyde oxidase purified from culture supernatant of Cellulosimicrobium cellulans IFO 15516; SEQ ID NOS: 11 and 12” showed a glyoxylic acid generated in data set [1] of 26 mM. Further, the “Activity to glyoxal/activity” value in data set [2] is 100. Moreover, the “Relative activity (%)” value in data set [2] is reported as 100%; in data set [3], 1%.

B1: KNK269-derived enzyme: aldehyde oxidase purified from Streptomyces sp. KNK269; three subunits, SEQ ID NOS: 1 to 3 (protein)
chain 1: GADLEPEPVVDEHSTVTLNVNGDPTTLTVDHRTTVLETLRESFGLTGAKKGCDHGQCGACTVLVDGRRVNSCLLLAVAQDGATITTVEGLADGEDLHPVQRAFVERDALQCGFCTPGQICSAVGMLREAADGHPSHVTGPDTAAGPDAATGPGGPVALDADEIRERMSGNIFRCGAYHRIVEAIEDVIE
chain 2: MKPFGYVRPASPDEAVRLCAEGSGARFLGGGTNLVDLMKLGVEAPRVLIDVAGLPLDRVTRTADGGLAIGATVRNSDLAAHPDVTDRYPVLSQALLAGASGQLRNSATTGGNLLQRTRCRYFQDVSKPCNKRLPGSGCPARDGTHRDLAILGHSPECVATNPSDMAVALAALDATVVLLGPEGERAVPLTEFHRLPGENPDQDTAIRTGELITEVVLPPPAPGAATRYRKARDRASFAFALVSVAATLRVDAGRVEHATLAFGGVAHRPWRARRAEAELRGAPATPAVFQHALIAELAEARPLRDNVFKVDLARRLALDVLGELTERQPTRTG
chain 3: MTTRAPQFPGAPVVRREARDKVTGTARYAADRTPAGCLYAWTVPAAVAAGRVTAVRAVDALAVPGVHTVLTHDNAPELREPDDPILAVLQDDRVPHHGWPIALVIAESPEAARTGAGELHVEYARDEHDVTLTEDHPGLYTPEEANGGEPAVRVRGDVERALAASPVQVDATYRMVALHNHPMEPHAATAVRADGHLTVHDSSQGSTKVRESLAQAFGLAADRITVVSEHVGGGFGSKGTTRPQGVLAAMAAQHTGRPVKLVFPRAQLAEVVGHRAPTIQRVRLGADLDGVLTAVSHEVVTQTSTVKEFVEQAAVPARVMYASPHSRTAHRVTALDVPSPSWMRAPGEASGMYALESAMDVLDSALGLDPVELRLRNEPETEPDSGRPFSSRGLAACLRDGAARFGWQDRDPRPAARQEGRWLIGTGVASATYPVLLSRSTASAHATRDGDLSIAVNATDIGTGARTVLAQIAADVLGVAPEALRVDIGSTDLPAAPLAGGSSGTASWGWSVHKAATALAARLAEHRGPLPADGITTTADTGQETGEESPYARHAFGAHFAETAVDAVTGEVRVRRLLGVYAAGRILNERTARSQFTGGMVMGIGMALTEGCGIDPGFGDFTAKDLASYHVPVCADTADIQAHWIEEDDRHLNPMGSKGIGEIGIVGTAAAIGNAVRHATGARLRELPLTTDT
modifications: Streptomyces sp. KNK269; amino acid sequence of subunit gamma of aldehyde oxidase; amino acid sequence of subunit beta of aldehyde oxidase; amino acid sequence of subunit alpha of aldehyde oxidase
In the case of B1, the glyoxylic acid generated in data set [1] is 7.6 mM. In data set [4], the “remaining activity after heat treatment” value is on record as ≥ 90%. Further, in data set [2], the “Activity to glyoxal/activity” value was 1,710 and the “Relative activity (%)” value is reported as 100%. Further, the “Relative activity (%)” value in data set [3] came to 0.1%.
